Key:
[1] = molecular target: T1, Avi/his-CalR-Ins5 (CALRW28.004) (human, UniProt P27797 18-417, limits assumed); assay: SPR, forced degradation: Metal Ox
T1 construct: also called human CALRins5
T1 sequence (looked up): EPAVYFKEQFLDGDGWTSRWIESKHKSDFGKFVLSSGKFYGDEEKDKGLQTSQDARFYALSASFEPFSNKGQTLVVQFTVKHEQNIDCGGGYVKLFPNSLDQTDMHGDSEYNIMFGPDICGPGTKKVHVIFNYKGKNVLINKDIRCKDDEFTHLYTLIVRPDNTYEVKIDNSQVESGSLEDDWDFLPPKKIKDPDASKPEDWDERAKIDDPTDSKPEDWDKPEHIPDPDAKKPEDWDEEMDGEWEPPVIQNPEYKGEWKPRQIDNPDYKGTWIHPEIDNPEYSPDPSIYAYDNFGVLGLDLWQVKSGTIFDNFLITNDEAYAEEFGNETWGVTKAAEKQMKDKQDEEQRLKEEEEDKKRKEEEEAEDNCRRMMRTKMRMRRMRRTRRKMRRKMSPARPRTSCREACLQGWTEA

[2] = molecular target: T2, Flag/6xhis-CALRdel52 (CALRW12.007) (human, UniProt P27797 18-417); assay: SPR, forced degradation: Metal Ox
T2 construct: also called human CALRdel52
T2 sequence (looked up): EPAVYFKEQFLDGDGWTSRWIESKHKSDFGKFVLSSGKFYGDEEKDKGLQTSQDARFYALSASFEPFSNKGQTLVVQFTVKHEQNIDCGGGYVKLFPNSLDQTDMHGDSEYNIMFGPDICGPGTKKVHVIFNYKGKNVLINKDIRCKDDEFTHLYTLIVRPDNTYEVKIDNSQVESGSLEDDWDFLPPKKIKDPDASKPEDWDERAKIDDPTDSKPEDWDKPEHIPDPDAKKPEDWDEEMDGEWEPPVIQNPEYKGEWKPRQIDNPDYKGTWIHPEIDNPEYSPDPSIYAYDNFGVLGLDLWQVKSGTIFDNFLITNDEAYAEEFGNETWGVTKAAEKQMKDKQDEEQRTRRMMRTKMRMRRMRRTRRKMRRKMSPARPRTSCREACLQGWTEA

[3] = molecular target: T3, CD3EG-HSA-6xHis (CD3W220.002) (human, UniProt P07766 22-118; P09693 23-103); assay: SPR, forced degradation: Metal Ox
T3 construct: also called human CD3; not shown: human serum albumin (HSA); 6xHis tag

[4] = molecular target: T4, CD3 on primary human pan T cells (human, UniProt P07766 23-207); assay: flow cytometry, CD3+ pan T cells of 6 healthy donors; average over pan T cells of 6 healthy donors; 1 hour 37° C. incubation
T4 construct: whole, on cells; also called CD3e; CD3ε
Protocol: Flow cytometry was used to evaluate the CD3 arm binding of C3CRB73 to CD3+ pan T cells from 6 different healthy human donors. C3CRB73 and NullxCD3 spFv were tested after 1 hour 37° C. incubation with pan T cells.

[5] = molecular target: T5, CALRins5 (mutant calreticulin, 5 base pair insertion, Type 2) expressed with MPL on engineered cancer cells (UniProt P27797 18-417); assay: flow cytometry on OCI-M2 MPL CALRins5 cells, 1 h at 37 C, AF647 secondary antibody, Geometric mean
T5 construct: whole, on cells; On the cell surface in complex with MPL; also called OCI-M2 MPL CALRins5
T5 sequence (looked up): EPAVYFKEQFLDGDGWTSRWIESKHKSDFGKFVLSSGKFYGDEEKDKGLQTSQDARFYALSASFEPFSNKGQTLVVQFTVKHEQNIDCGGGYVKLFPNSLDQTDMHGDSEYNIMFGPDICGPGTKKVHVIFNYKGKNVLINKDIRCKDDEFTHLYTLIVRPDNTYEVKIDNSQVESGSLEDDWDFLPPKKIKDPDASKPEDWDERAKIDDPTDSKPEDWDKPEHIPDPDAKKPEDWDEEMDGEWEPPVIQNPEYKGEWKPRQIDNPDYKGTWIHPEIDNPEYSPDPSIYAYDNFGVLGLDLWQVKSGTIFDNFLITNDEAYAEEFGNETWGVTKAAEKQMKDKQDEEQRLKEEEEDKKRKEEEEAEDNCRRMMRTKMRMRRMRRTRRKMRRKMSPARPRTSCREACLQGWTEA
Protocol: FIGS. 27A-27F depict binding of different CALRmutxCD3 antibodies to CALRmut-negative or CALRmut-positive cells. Flow cytometry was used to evaluate CALRmutxCD3 binding to CALRmut-negative and CALRmut-positive cancer cells in vitro. CALRmutxCD3 antibodies were tested on a panel of cell lines, engineered to express MPL and CALRmut, after 1 hour 37° C. incubation, with subsequent incubation with secondary AF647-labeled antibody. Geometric mean fluorescence intensity of AF647 was measured to determine antibody binding.

[6] = molecular target: T1, Avi/his-CalR-Ins5 (CALRW28.004); assay: SPR, forced degradation: pH 5.0
[7] = molecular target: T2, Flag/6xhis-CALRdel52 (CALRW12.007); assay: SPR, forced degradation: pH 5.0
[8] = molecular target: T3, CD3EG-HSA-6xHis (CD3W220.002); assay: SPR, forced degradation: pH 5.0
cyno FcRn = cyno FcRn (cynomolgus monkey, UniProt Q8SPV9 24-297; Q8SPW0 21-119, limits assumed); assay: FcRn binding, method not stated
[9] = molecular target: T1, Avi/his-CalR-Ins5 (CALRW28.004); assay: SPR, forced degradation: pH 8.5
[10] = molecular target: T2, Flag/6xhis-CALRdel52 (CALRW12.007); assay: SPR, forced degradation: pH 8.5
[11] = molecular target: T3, CD3EG-HSA-6xHis (CD3W220.002); assay: SPR, forced degradation: pH 8.5
[12] = molecular target: T6, CALRdel52 (mutant calreticulin, 52 base pair deletion, Type 1) expressed with MPL on engineered cancer cells (UniProt P27797 18-417); assay: cell-based or functional assay
T6 sequence (looked up): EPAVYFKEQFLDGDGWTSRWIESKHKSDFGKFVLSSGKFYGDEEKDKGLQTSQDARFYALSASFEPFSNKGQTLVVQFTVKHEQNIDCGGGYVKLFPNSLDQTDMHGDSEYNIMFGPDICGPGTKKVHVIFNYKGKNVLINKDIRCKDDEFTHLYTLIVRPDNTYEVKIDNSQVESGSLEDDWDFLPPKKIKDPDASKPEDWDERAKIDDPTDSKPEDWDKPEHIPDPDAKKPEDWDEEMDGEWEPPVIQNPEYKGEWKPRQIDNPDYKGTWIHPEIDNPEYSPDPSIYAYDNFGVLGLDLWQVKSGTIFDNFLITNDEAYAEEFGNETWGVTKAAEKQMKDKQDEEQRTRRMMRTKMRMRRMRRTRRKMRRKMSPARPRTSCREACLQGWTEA

[13] = molecular target: T5, CALRins5 (mutant calreticulin, 5 base …); assay: cell-based or functional assay
[14] = molecular target: T6, CALRdel52 (mutant calreticulin, 52 base …); assay: cell-based or functional assay; remark: listed apart in the source

T3 sequence (P07766 other isoform, or with tags, fused parts or gaps): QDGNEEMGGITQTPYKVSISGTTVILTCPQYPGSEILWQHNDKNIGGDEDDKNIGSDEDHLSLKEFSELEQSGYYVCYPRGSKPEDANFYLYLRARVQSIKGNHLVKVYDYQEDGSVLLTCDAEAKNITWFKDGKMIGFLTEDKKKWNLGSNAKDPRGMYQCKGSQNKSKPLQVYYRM
T4 sequence (P07766 23-207): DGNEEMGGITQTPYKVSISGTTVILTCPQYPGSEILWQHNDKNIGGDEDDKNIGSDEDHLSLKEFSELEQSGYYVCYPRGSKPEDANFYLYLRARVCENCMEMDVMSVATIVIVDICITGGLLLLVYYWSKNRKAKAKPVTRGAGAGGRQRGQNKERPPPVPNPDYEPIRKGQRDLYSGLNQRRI
Sequence of cyno FcRn (Q8SPV9 24-297 limits assumed, chain 1 of 2): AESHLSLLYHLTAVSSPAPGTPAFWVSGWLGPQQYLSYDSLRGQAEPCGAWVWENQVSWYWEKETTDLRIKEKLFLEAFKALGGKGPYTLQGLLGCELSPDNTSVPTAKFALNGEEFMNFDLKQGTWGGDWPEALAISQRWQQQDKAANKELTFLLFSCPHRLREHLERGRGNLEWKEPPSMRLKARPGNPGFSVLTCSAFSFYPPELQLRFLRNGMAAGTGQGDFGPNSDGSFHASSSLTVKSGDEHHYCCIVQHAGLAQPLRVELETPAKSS
Sequence of cyno FcRn (Q8SPW0 21-119 limits assumed, chain 2 of 2): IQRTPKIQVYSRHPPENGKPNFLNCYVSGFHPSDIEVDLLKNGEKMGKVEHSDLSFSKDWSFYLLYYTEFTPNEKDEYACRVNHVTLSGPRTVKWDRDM

B1: C3CRB73 CALRmut x CD3 bispecific antibody (bispecific antibody, human IgG1, kappa, L234A L235A)
heavy: EVQLLESGGGLVQPGGSLRLSCAVSGIDLSNNAISWVRQAPGKGLEYVGVIGNTGDTYYADSAKGRFTISRDSSKTTLYLQMNSLRAEDTAVYFCVRGPPSYSSSVKNIWGQGTLVTVSSASTKGPSVFPLAPSSKSTSGGTAALGCLVKDYFPEPVTVSWNSGALTSGVHTFPAVLQSSGLYSLSSVVTVPSSSLGTQTYICNVNHKPSNTKVDKKVEPKSCDKTHTCPPCPAPEAAGGPSVFLFPPKPKDTLMISRTPEVTCVVVSVSHEDPEVKFNWYVDGVEVHNAKTKPREEQYNSTYRVVSVLTVLHQDWLNGKEYKCKVSNKALPAPIEKTISKAKGQPREPQVYTLPPSREEMTKNQVSLSCAVKGFYPSDIAVEWESNGQPENNYKTTPPVLDSDGSFFLVSKLTVDKSRWQQGNVFSCSVMHEALHNRFTQKSLSLSPGK
light: DIQMTQSPSSVSASVGDRVTITCQSSQSVYNNNWLSWLQQKPGKAPKRLIYDASKLESGVPSRFSGSGSGTDFTLTISSVQPEDAATYYCAGGFTGNVYTFGGGTKVEIKRTVAAPSVFIFPPSDEQLKSGTASVVCLLNNFYPREAKVQWKVDNALQSGNSQESVTEQDSKDSTYSLSSTLTLSKADYEKHKVYACEVTHQGLSSPVTKSFNRGEC
scFv: DIQMTQSPSSLSASVGDRVTITCRARQSIGTAIHWYQQKPGCAPKLLIKYASESISGVPSRFSGSGSGTDFTLTISSLQPEDFATYYCQQSGSWPYTFGQGTKLEIKGGGSGGSGGCPPCGGSGGEVQLVESGGGLVKPGGSLRLSCAASGFTFSRYNMNWVRQAPGKGLEWVSSISTSSNYIYYADSVKGRFTFSRDNAKNSLDLQMSGLRAEDTAIYYCTRGWGPFDYWGCGTLVTVSSEPKSSDKTHTCPPCPAPEAAGGPSVFLFPPKPKDTLMISRTPEVTCVVVSVSHEDPEVKFNWYVDGVEVHNAKTKPREEQYNSTYRVVSVLTVLHQDWLNGKEYKCKVSNKALPAPIEKTISKAKGQPREPQVYTLPPSREEMTKNQVSLWCLVKGFYPSDIAVEWESNGQPENNYKTTPPVLDSDGSFFLYSKLTVDKSRWQQGNVFSCSVMHEALHNHYTQKSLSLSPGK
notes: IgG1-AAS; also called JNJ-88549968; CALRB421 Fab x CD3 spFv
[1]
  % Active: 94%
  Kd: 0.0356 nM
[2]
  % Active: 97%
  Kd: 0.063 nM
[3]
  % Active: 91%
  Kd: 0.272 nM
[4]
  EC50: 23.8 nM
[5]
  EC50 (read off the curve): ~5 nM
[6]
  % Active: 98%
  Kd: 0.0342 nM
[7]
  % Active: 103%
  Kd: 0.114 nM
[8]
  % Active: 100%
  Kd: 0.231 nM
Cyno FcRn
  Kd: 900 nM
[9]
  % Active: 97%
  Kd: 0.0313 nM
[10]
  % Active: 104%
  Kd: 0.251 nM
[11]
  % Active: 93%
  Kd: 0.28 nM
[12]
  T cell-mediated cytotoxicity EC50 (nM), ELF-153 MPL CALRdel52: 0.034 nM
  T cell-mediated cytotoxicity EC50 (nM), OCI-M2 MPL CALRdel52: 0.61 nM
[13]
  T cell-mediated cytotoxicity EC50 (nM), ELF-153 MPL CALRins5: 0.094 nM
  T cell-mediated cytotoxicity EC50 (nM), OCI-M2 MPL CALRins5: 1.69 nM
[14]
  % CD25+ CD8 T cells EC50 (nM), CALRmut patient blood, ELF-153 MPL CALRdel52: 2.46 nM
  % CD25+ CD8 T cells EC50 (nM), healthy donor blood, ELF-153 MPL CALRdel52: 1 nM
  % CD69+ CD8 T cells EC50 (nM), CALRmut patient blood, ELF-153 MPL CALRdel52: 3.06 nM
  % CD69+ CD8 T cells EC50 (nM), healthy donor blood, ELF-153 MPL CALRdel52: 0.88 nM
